We go through eight sequences from the supplement of paper PMC5998384.

Data set [1] relates to HeLa Kyoto. Put plainly: solubility change mitosis vs G1/S (difference of NP-40 vs SDS log2 ratios) (log2 ratio difference); higher = more soluble in mitosis.
The test system of data set [2] is HeLa Kyoto. The data set is described as follows: melting temperature (median over replicates), in situ; higher = more thermally stable.
In data set [3] the test system is HeLa Kyoto. Put plainly: solubility in G1/S (NP-40 vs SDS abundance) (log2 ratio); higher = more soluble. Conditions: cell cycle stage: G1/S.
For data set [4], the system named is HeLa Kyoto. Put plainly: thermal stability score vs G1/S (z-score of summed log2 fold changes over temperatures); higher = more thermally stable than in G1/S.
Where [5] appears, read: cell cycle stage: early G1 (4.5 h after nocodazole release).
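Throughout, for melting temperature (median over replicates), in situ: HeLa Kyoto cells synchronized by double thymidine or nocodazole block, proteins quantified by TMT10plex mass spectrometry, three independent biological replicates.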
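Throughout, for solubility change mitosis vs G1/S (difference of NP-40 vs SDS log2 ratios): synchronized HeLa Kyoto cells (double thymidine block for G1/S, nocodazole release for mitosis), protein amounts in NP-40 versus SDS lysates quantified by mass spectrometry, three biological replicates.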
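Throughout, for solubility in G1/S (NP-40 vs SDS abundance): HeLa Kyoto cells arrested at G1/S by double thymidine block, proteins quantified by TMT10plex mass spectrometry in mild NP-40 versus SDS extracts, three biological replicates.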
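Throughout, for thermal stability score vs G1/S (z-score of summed log2 fold changes over temperatures): synchronized HeLa Kyoto cells, proteins quantified by TMT10plex mass spectrometry, three biological replicates, mitosis taken 0.5 h after nocodazole release, G1/S directly after double thymidine block.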

On to “MADLAECNIKVMCRFRPLNESEVNRGDKYIAKFQGEDTVVIASKPYAFDRVFQSSTSQEQVYNDCAKKIVKDVLEGYNGTIFAYGQTSSGKTHTMEGKLHDPEGMGIIPRIVQDIFNYIYSMDENLEFHIKVSYFEIYLDKIRDLLDVSKTNLSVHEDKNRVPYVKGCTERFVCSPDEVMDTIDEGKSNRHVAVTNMNEHSSRSHSIFLINVKQENTQTEQKLSGKLYLVDLAGSEKVSKTGAEGAVLDEAKNINKSLSALGNVISALAEGSTYVPYRDSKMTRILQDSLGGNCRTTIVICCSPSSYNESETKSTLLFGQRAKTIKNTVCVNVELTAEQWKKKYEKEKEKNKILRNTIQWLENELNRWRNGETVPIDEQFDKEKANLEAFTVDKDITLTNDKPATAIGVIGNFTDAERRKCEEEIAKLYKQLDDKDEEINQQSQLVEKLKTQMLDQEELLASTRRDQDNMQAELNRLQAENDASKEEVKEVLQALEELAVNYDQKSQEVEDKTKEYELLSDELNQKSATLASIDAELQKLKEMTNHQKKRAAEMMASLLKDLAEIGIAVGNNDVKQPEGTGMIDEEFTVARLYISKMKSEVKTMVKRCKQLESTQTESNKKMEENEKELAACQLRISQHEAKIKSLTEYLQNVEQKKRQLEESVDALSEELVQLRAQEKVHEMEKEHLNKVQTANEVKQAVEQQIQSHRETHQKQISSLRDEVEAKAKLITDLQDQNQKMMLEQERLRVEHEKLKATDQEKSRKLHELTVMQDRREQARQDLKGLEETVAKELQTLHNLRKLFVQDLATRVKKSAEIDSDDTGGSAAQKQKISFLENNLEQLTKVHKQLVRDNADLRCELPKLEKRLRATAERVKALESALKEAKENASRDRKRYQQEVDRIKEAVRSKNMARRGHSAQIAKPIRPGQHPAASPTHPSAIRGGGAFVQNSQPVAVRGGGGKQV [KIF5B]”, for which the “solubility change mitosis (log2)” value in data set [1] is -0.0355. Moreover, the melting temperature in data set [2] (cell cycle stage: G1/S) and in data set [2] (cell cycle stage: mitosis) was 51.5 °C throughout. Besides, the “solubility in G1/S (log2)” value in data set [3] was found to be 0.108. Besides, the thermal stability score in data set [4] (setting [5]) turned out to be 1.12; in data set [4] (cell cycle stage: mitosis), 0.152.
For “MQWNVPRTVSRLARRTCLEPHNAGLFGHCQNVKGPLLLYNAESKVVLVQGPQKQWLHLSAAQCVAKERRPLDAHPPQPGVLRHKQGKQHVSFRRVFSSSATAQGTPEKKEEPDPLQDKSISLYQRFKKTFRQYGKVLIPVHLITSGVWFGTFYYAALKGVNVVPFLELIGLPDSVVSILKNSQSGNALTAYALFKIATPARYTVTLGGTSVTVKYLRSHGYMSTPPPVKEYLQDRMEETKELITEKMEETKDRLTEKLQETKEKVSFKKKVE [FAM210A]”, the “solubility change mitosis (log2)” value in data set [1] is -0.102. Moreover, the melting temperature in data set [2] (cell cycle stage: G1/S) stood at 55.7 °C; in data set [2] (cell cycle stage: mitosis), 54.9 °C. Moreover, the “solubility in G1/S (log2)” value in data set [3] was determined as 0.234. The results for the thermal stability score in data set [4] (setting [5]) and in data set [4] (cell cycle stage: mitosis) were -3.65 and -2.22, respectively.
As to “MATKTAGVGRWEVVKKGRRPGVGAGAGGRGGGRNRRALGEANGVWKYDLTPAIQTTSTLYERGFENIMKRQNKEQVPPPAVEPKKPGNKKQPKKVATPPNQNQKQGRFRSLEEALKALDVADLQKELDKSQSVFSGNPSIWLKDLASYLNYKLQAPLSEPTLSQHTHDYPYSLVSRELRGIIRGLLAKAAGSLELFFDHCLFTMLQELDKTPGESLHGYRICIQAILQDKPKIATANLGKFLELLRSHQSRPAKCLTIMWALGQAGFANLTEGLKVWLGIMLPVLGIKSLSPFAITYLDRLLLMHPNLTKGFGMIGPKDFFPLLDFAYMPNNSLTPSLQEQLCQLYPRLKVLAFGAKPDSTLHTYFPSFLSRATPSCPPEMKKELLSSLTECLTVDPLSASVWRQLYPKHLSQSSLLLEHLLSSWEQIPKKVQKSLQETIQSLKLTNQELLRKGSSNNQDVVTCDMACKGLLQQVQGPRLPWTRLLLLLLVFAVGFLCHDLRSHSSFQASLTGRLLRSSGFLPASQQACAKLYSYSLQGYSWLGETLPLWGSHLLTVVRPSLQLAWAHTNATVSFLSAHCASHLAWFGDSLTSLSQRLQIQLPDSVNQLLRYLRELPLLFHQNVLLPLWHLLLEALAWAQEHCHEACRGEVTWDCMKTQLSEAVHWTWLCLQDITVAFLDWALALISQQ [TMEM214]”, in data set [1], the “solubility change mitosis (log2)” value was determined as 0.000207. Moreover, the melting temperature in data set [2] (cell cycle stage: G1/S) was determined as 51.1 °C; in data set [2] (cell cycle stage: mitosis), 49.8 °C. Besides, the “solubility in G1/S (log2)” value in data set [3] is -0.173. The thermal stability score in data set [4] (setting [5]) was -1.35; in data set [4] (cell cycle stage: mitosis), -0.782.
As for “MATQAYTELQAAPPPSQPPQAPPQAQPQPPPPPPPAAPQPPQPPTAAATPQPQYVTELQSPQPQAQPPGGQKQYVTELPAVPAPSQPTGAPTPSPAPQQYIVVTVSEGAMRASETVSEASPGSTASQTGVPTQVVQQVQGTQQRLLVQTSVQAKPGHVSPLQLTNIQVPQQALPTQRLVVQSAAPGSKGGQVSLTVHGTQQVHSPPEQSPVQANSSSSKTAGAPTGTVPQQLQVHGVQQSVPVTQERSVVQATPQAPKPGPVQPLTVQGLQPVHVAQEVQQLQQVPVPHVYSSQVQYVEGGDASYTASAIRSSTYSYPETPLYTQTASTSYYEAAGTATQVSTPATSQAVASSGSMPMYVSGSQVVASSTSTGAGASNSSGGGGSGGGGGGGGGGGGGGSGSTGGGGSGAGTYVIQGGYMLGSASQSYSHTTRASPATVQWLLDNYETAEGVSLPRSTLYCHYLLHCQEQKLEPVNAASFGKLIRSVFMGLRTRRLGTRGNSKYHYYGLRIKASSPLLRLMEDQQHMAMRGQPFSQKQRLKPIQKMEGMTNGVAVGQQPSTGLSDISAQVQQYQQFLDASRSLPDFTELDLQGKVLPEGVGPGDIKAFQVLYREHCEAIVDVMVNLQFTLVETLWKTFWRYNLSQPSEAPPLAVHDEAEKRLPKAILVLLSKFEPVLQWTKHCDNVLYQGLVEILIPDVLRPIPSALTQAIRNFAKSLESWLTHAMVNIPEEMLRVKVAAAGAFAQTLRRYTSLNHLAQAARAVLQNTAQINQMLSDLNRVDFANVQEQASWVCRCEDRVVQRLEQDFKVTLQQQNSLEQWAAWLDGVVSQVLKPYQGSAGFPKAAKLFLLKWSFYSSMVIRDLTLRSAASFGSFHLIRLLYDEYMYYLIEHRVAQAKGETPIAVMGEFANLATSLNPLDPDKDEEEEEEEESEDELPQDISLAAGGESPALGPETLEPPAKLARTDARGLFVQALPSS [RFX1]”, the “solubility change mitosis (log2)” value in data set [1] is -0.21. Further, the melting temperature in data set [2] (cell cycle stage: G1/S) amounted to 53.3 °C; in data set [2] (cell cycle stage: mitosis), 53 °C. For the same sequence, in data set [3], the “solubility in G1/S (log2)” value is -0.00333. For the same sequence, the thermal stability score in data set [4] (setting [5]) was -1.2; in data set [4] (cell cycle stage: mitosis) it was -2.15.
Take “MALHVPKAPGFAQMLKEGAKHFSGLEEAVYRNIQACKELAQTTRTAYGPNGMNKMVINHLEKLFVTNDAATILRELEVQHPAAKMIVMASHMQEQEVGDGTNFVLVFAGALLELAEELLRIGLSVSEVIEGYEIACRKAHEILPNLVCCSAKNLRDIDEVSSLLRTSIMSKQYGNEVFLAKLIAQACVSIFPDSGHFNVDNIRVCKILGSGISSSSVLHGMVFKKETEGDVTSVKDAKIAVYSCPFDGMITETKGTVLIKTAEELMNFSKGEENLMDAQVKAIADTGANVVVTGGKVADMALHYANKYNIMLVRLNSKWDLRRLCKTVGATALPRLTPPVLEEMGHCDSVYLSEVGDTQVVVFKHEKEDGAISTIVLRGSTDNLMDDIERAVDDGVNTFKVLTRDKRLVPGGGATEIELAKQITSYGETCPGLEQYAIKKFAEAFEAIPRALAENSGVKANEVISKLYAVHQEGNKNVGLDIEAEVPAVKDMLEAGILDTYLGKYWAIKLATNAAVTVLRVDQIIMAKPAGGPKPPSGKKDWDDDQND [CCT8]”: the “solubility change mitosis (log2)” value in data set [1] is -0.0769. Also, the melting temperature in data set [2] (cell cycle stage: G1/S) was found to be 54.2 °C; in data set [2] (cell cycle stage: mitosis) it was 53.9 °C. Further, in data set [3], the “solubility in G1/S (log2)” value stood at 0.0969. Besides, the results for the thermal stability score in data set [4] (setting [5]) and in data set [4] (cell cycle stage: mitosis) were -0.228 and -1.4, respectively.
Consider “MASPSRRLQTKPVITCFKSVLLIYTFIFWITGVILLAVGIWGKVSLENYFSLLNEKATNVPFVLIATGTVIILLGTFGCFATCRASAWMLKLYAMFLTLVFLVELVAAIVGFVFRHEIKNSFKNNYEKALKQYNSTGDYRSHAVDKIQNTLHCCGVTDYRDWTDTNYYSEKGFPKSCCKLEDCTPQRDADKVNNEGCFIKVMTIIESEMGVVAGISFGVACFQLIGIFLAYCLSRAITNNQYEIV [TSPAN6]”, for which, in data set [1], the “solubility change mitosis (log2)” value amounted to 2.55e-05. In addition, the melting temperature in data set [2] (cell cycle stage: G1/S) was found to be 58.9 °C; in data set [2] (cell cycle stage: mitosis) it was 55.8 °C. Besides, in data set [3], the “solubility in G1/S (log2)” value is -0.201. Also, the thermal stability score was 0.413 in data set [4] (setting [5]) and -2.28 in data set [4] (cell cycle stage: mitosis).
Regarding “MQRALPGARQHLGAILASASVVVKALCAAVLFLYLLSFAVDTGCLAVTPGYLFPPNFWIWTLATHGLMEQHVWDVAISLTTVVVAGRLLEPLWGALELLIFFSVVNVSVGLLGAFAYLLTYMASFNLVYLFTVRIHGALGFLGGVLVALKQTMGDCVVLRVPQVRVSVMPMLLLALLLLLRLATLLQSPALASYGFGLLSSWVYLRFYQRHSRGRGDMADHFAFATFFPEILQPVVGLLANLVHSLLVKVKICQKTVKRYDVGAPSSITISLPGTDPQDAERRRQLALKALNERLKRVEDQSIWPSMDDDEEESGAKVDSPLPSDKAPTPPGKGAAPESSLITFEAAPPTL [TMEM115]”, the “solubility change mitosis (log2)” value in data set [1] came out at 0.0464. The same sequence returned a melting temperature in data set [2] (cell cycle stage: G1/S) of 55.8 °C. Further, the “solubility in G1/S (log2)” value in data set [3] is -0.146. The thermal stability score was -2.84 in data set [4] (setting [5]) and -3.54 in data set [4] (cell cycle stage: mitosis).
As for “MEKILQMAEGIDIGEMPSYDLVLSKPSKGQKRHLSTCDGQNPPKKQAGSKFHARPRFEPVHFVASSSKDERQEDPYGPQTKEVNEQTHFASMPRDIYQDYTQDSFSIQDGNSQYCDSSGFILTKDQPVTANMYFDSGNPAPSTTSQQANSQSTPEPSPSQTFPESVVAEKQYFIEKLTATIWKNLSNPEMTSGSDKINYTYMLTRCIQACKTNPEYIYAPLKEIPPADIPKNKKLLTDGYACEVRCQNIYLTTGYAGSKNGSRDRATELAVKLLQKRIEVRVVRRKFKHTFGEDLVVCQIGMSSYEFPPALKPPEDLVVLGKDASGQPIFNASAKHWTNFVITENANDAIGILNNSASFNKMSIEYKYEMMPNRTWRCRVFLQDHCLAEGYGTKKTSKHAAADEALKILQKTQPTYPSVKSSQCHTGSSPRGSGKKKDIKDLVVYENSSNPVCTLNDTAQFNRMTVEYVYERMTGLRWKCKVILESEVIAEAVGVKKTVKYEAAGEAVKTLKKTQPTVINNLKKGAVEDVISRNEIQGRSAEEAYKQQIKEDNIGNQLLRKMGWTGGGLGKSGEGIREPISVKEQHKREGLGLDVERVNKIAKRDIEQIIRNYARSESHTDLTFSRELTNDERKQIHQIAQKYGLKSKSHGVGHDRYLVVGRKRRKEDLLDQLKQEGQVGHYELVMPQAN [NKRF]”, the “solubility change mitosis (log2)” value in data set [1] was 0.226. In addition, the results for the melting temperature in data set [2] (cell cycle stage: G1/S) and in data set [2] (cell cycle stage: mitosis) were 44.4 °C and 48 °C, respectively. Besides, in data set [3], the “solubility in G1/S (log2)” value was -0.517. The thermal stability score in data set [4] (setting [5]) came out at 3.45; in data set [4] (cell cycle stage: mitosis), 6.93.
